Our source for the self-cleavage values is the RNAGym collection of RNA variant scans (doi:10.7554/elife.80360).

B1: Hammerhead Ribozyme (parent)
chain: ACCGGAUGUGCUUUCCGGUCUGAUGAGUCCGUGAGGACGAAACAG

The variants in the data set derive from B1. Kind of data set: self-cleavage, relative activity (ratio to wild type); higher = more cleavage; co-transcriptional.
As to U28C A42U, the self-cleavage is 0.325.
Turning to U28C A42G, the self-cleavage was found to be 0.251.
As to U28C A42C, the self-cleavage turned out to be 0.338.
Consider G27C G35A, for which the self-cleavage was 0.443.
In the case of G27C G35C it was 0.394; in that of G27C G35U, 0.402.
In the case of U28A G45C it was 0.365; in that of U28A G45A, 0.436.
In the case of U28A G45U it was 0.496; in that of G27A A41C, 0.339; in that of G27A A41G, 0.361.
As to G27A A41U, the self-cleavage was found to be 0.319.
In the case of G27C A37G it was 0.677.
Turning to G27C A37U, the self-cleavage is 0.479.
Turning to G27C A37C, the self-cleavage was determined as 0.491.
In the case of U28C A41G it was 0.364; in that of U28C A41C, 0.29; in that of U28C A41U, 0.319.
As for U28G C30G, the self-cleavage turned out to be 0.315.
On to U28G C30A, for which the self-cleavage was determined as 0.408.
With U28G C30U, the self-cleavage was 0.83.
In the case of G27U C38U it was 0.683; in that of G27U C38G, 0.597.
In the case of G27U C38A, the self-cleavage stood at 0.785.
For U28A G36U, the self-cleavage was found to be 0.438.
On to U28A G36A, for which the self-cleavage was determined as 0.339.
For U28A G36C, the self-cleavage was found to be 0.396.
In the case of G27U C29U it was 0.316; in that of G27U C29A, 0.312.
For the variant G27U C29G, the self-cleavage turned out to be 0.366.
As to U28A C43A, the self-cleavage was 0.292.
U28A C43G: the self-cleavage was found to be 0.336.
Consider U28A C43U, for which the self-cleavage was determined as 0.381.
Regarding U28G G39C, the self-cleavage came to 0.323.
For U28G G39U, the self-cleavage came to 0.32.
Consider U28G G39A, for which the self-cleavage was determined as 0.411.
In the case of G27A C43A it was 0.347; in that of G27A C43G, 0.415.
Turning to G27A C43U, the self-cleavage is 0.33.
As to G27C G45A, the self-cleavage turned out to be 0.432.
On to G27C G45U, for which the self-cleavage was found to be 0.564.
As for G27C G45C, the self-cleavage came out at 0.493.
On to U28A G33C, for which the self-cleavage came out at 1.15.
In the case of U28A G33U it was 0.884; in that of U28A G33A, 0.829; in that of U28C G45C, 0.406.
On to U28C G45A, for which the self-cleavage came to 0.628.
In the case of U28C G45U it was 0.727; in that of C29A A37G, 0.692; in that of C29A A37U, 0.703.
On to C29A A37C, for which the self-cleavage is 0.755.
For U28C G35U, the self-cleavage turned out to be 0.431.
Consider U28C G35C, for which the self-cleavage came to 0.534.
In the case of U28C G35A it was 0.638; in that of G27A G31C, 0.864.
Regarding G27A G31A, the self-cleavage was found to be 0.61.
Turning to G27A G31U, the self-cleavage turned out to be 0.923.
Consider U28G U32C, for which the self-cleavage was found to be 0.664.
Take U28G U32G: the self-cleavage came to 0.449.
In the case of U28G U32A it was 0.83.
Regarding U28G C43G, the self-cleavage was 0.274.
With U28G C43A, the self-cleavage was determined as 0.323.
With U28G C43U, the self-cleavage was 0.3.
As to G27C A44C, the self-cleavage came to 0.38.
G27C A44G: the self-cleavage was determined as 0.988.
Regarding G27C A44U, the self-cleavage turned out to be 0.445.
Take U28A C38A: the self-cleavage is 0.726.
As to U28A C38U, the self-cleavage is 0.703.
With U28A C38G, the self-cleavage is 0.521.
In the case of U28G C29A it was 0.878.
With U28G C29G, the self-cleavage came out at 0.547.
Turning to U28G C29U, the self-cleavage turned out to be 0.77.
Regarding U28G G45U, the self-cleavage came out at 0.527.
As to U28G G45A, the self-cleavage amounted to 0.418.
As for U28G G45C, the self-cleavage came to 0.412.
With C29A A44C, the self-cleavage was determined as 0.323.
With U28C A37U, the self-cleavage is 0.772.
For U28C A37C, the self-cleavage came out at 0.467.
Turning to U28C A37G, the self-cleavage was determined as 0.914.
As to G27C A40G, the self-cleavage came to 0.297.
Take G27C A40U: the self-cleavage worked out at 0.356.
For the variant G27C A40C, the self-cleavage was 0.411.
Take G27U A40G: the self-cleavage is 0.298.
Turning to G27U A40U, the self-cleavage stood at 0.402.
As to G27U A40C, the self-cleavage was 0.363.
In the case of G27C C29G, the self-cleavage amounted to 0.279.
Take G27C C29A: the self-cleavage is 0.414.
For the variant G27C C29U, the self-cleavage was 0.576.
As for G27C A42U, the self-cleavage was determined as 0.313.
Turning to G27C A42C, the self-cleavage is 0.272.
Regarding G27C A42G, the self-cleavage stood at 0.267.
Consider G27C U32A, for which the self-cleavage is 0.716.
Consider G27C U32G, for which the self-cleavage was 0.705.
For G27C U32C, the self-cleavage turned out to be 1.01.
As for U28G A34U, the self-cleavage worked out at 0.475.
Consider U28G A34G, for which the self-cleavage amounted to 0.793.
In the case of U28G A34C it was 0.411; in that of G27C C30G, 0.459; in that of G27C C30A, 0.401.
As for G27C C30U, the self-cleavage came out at 0.818.
Consider U28A A37C, for which the self-cleavage is 0.398.
Take U28A A37G: the self-cleavage was found to be 0.325.
On to U28A A37U, for which the self-cleavage came to 0.895.
In the case of G27A G39U it was 0.348; in that of G27A G39A, 0.247.
In the case of G27A G39C it was 0.285; in that of G27A A37G, 0.691; in that of G27A A37C, 0.743.
Consider G27A A37U, for which the self-cleavage was found to be 0.522.
Take U28C U32G: the self-cleavage is 0.556.
On to U28C U32C, for which the self-cleavage stood at 1.
With U28C U32A, the self-cleavage was 0.984.
On to G27U U28A, for which the self-cleavage came to 0.552.
As for G27U U28C, the self-cleavage was 0.38.
Regarding G27U U28G, the self-cleavage came to 0.507.
G27U A44U: the self-cleavage is 0.349.
As to G27U A44C, the self-cleavage came out at 0.305.
For G27U A44G, the self-cleavage was determined as 0.69.
Turning to G27C G31C, the self-cleavage stood at 0.666.
Consider G27C G31U, for which the self-cleavage was 0.772.
With G27C G31A, the self-cleavage was 0.885.
For G27U G45C, the self-cleavage is 0.365.
Take G27U G45U: the self-cleavage amounted to 0.488.
With G27U G45A, the self-cleavage amounted to 0.363.
Regarding U28G G36U, the self-cleavage was determined as 0.35.
Turning to U28G G36A, the self-cleavage worked out at 0.573.
For the variant U28G G36C, the self-cleavage was 0.317.
Regarding C29A A42U, the self-cleavage turned out to be 0.374.
As for C29A A42G, the self-cleavage amounted to 0.265.
In the case of C29A A42C, the self-cleavage is 0.304.
In the case of U28A G31A it was 0.856; in that of U28A G31C, 0.919; in that of U28A G31U, 0.92.
As for G27A G36U, the self-cleavage turned out to be 0.391.
For G27A G36C, the self-cleavage was 0.316.
Turning to G27A G36A, the self-cleavage turned out to be 0.401.
Consider G27U A34C, for which the self-cleavage worked out at 0.32.
On to G27U A34G, for which the self-cleavage stood at 0.373.
In the case of G27U A34U it was 0.382.
In the case of C29A it was 0.708; in that of G27C G39C, 0.261; in that of G27C G39A, 0.302.
With G27C G39U, the self-cleavage is 0.31.
In the case of U28C C43A, the self-cleavage is 0.289.
Regarding U28C C43U, the self-cleavage is 0.405.
With U28C C43G, the self-cleavage was 0.334.
On to G27U G35A, for which the self-cleavage was 0.334.
In the case of G27U G35C, the self-cleavage was found to be 0.407.
On to G27U G35U, for which the self-cleavage turned out to be 0.345.
In the case of G27A C38U it was 0.965; in that of G27A C38G, 0.623; in that of G27A C38A, 0.871.
As for G27C C38A, the self-cleavage is 0.863.
As to G27C C38G, the self-cleavage was found to be 0.426.
For G27C C38U, the self-cleavage came out at 0.792.
In the case of U28A A41G it was 0.398; in that of U28A A41U, 0.303; in that of U28A A41C, 0.277.
Consider G27U C30G, for which the self-cleavage was 0.297.
G27U C30A: the self-cleavage is 0.317.
In the case of G27U C30U it was 0.456; in that of U28A A42U, 0.341.
On to U28A A42G, for which the self-cleavage is 0.25.
Consider U28A A42C, for which the self-cleavage came out at 0.335.
Take U28A U32C: the self-cleavage worked out at 0.626.
With U28A U32G, the self-cleavage is 0.306.
Consider U28A U32A, for which the self-cleavage stood at 0.824.
